Measurements: IntAct's records for PubMed 29549094

B1: Syntaxin-17 (Homo sapiens), P56962 (parent)
chain: MSEDEEKVKLRRLEPAIQKFIKIVIPTDLERLRKHQINIEKYQRCRIWDKLHEEHINAGRTVQQLRSNIREIEKLCLKVRKDDLVLLKRMIDPVKEEASAATAEFLQLHLESVEELKKQFNDEETLLQPPLTRSMTVGGAFHTTEAEASSQSLTQIYALPEIPQDQNAAESWETLEADLIELSQLVTDFSLLVNSQQEKIDSIADHVNSAAVNVEEGTKNLGKAAKYKLAALPVAGALIGGMVGGPIGLLAGFKVAGIAAALGGGVLGFTGGKLIQRKKQKMMEKLTSSCPDLPSQTDKKCS
partner: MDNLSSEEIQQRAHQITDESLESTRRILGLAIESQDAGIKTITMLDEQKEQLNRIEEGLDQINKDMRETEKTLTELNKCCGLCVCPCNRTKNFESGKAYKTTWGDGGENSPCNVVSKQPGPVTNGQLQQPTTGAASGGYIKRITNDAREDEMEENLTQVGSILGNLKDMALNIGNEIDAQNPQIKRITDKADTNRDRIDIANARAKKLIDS
B2: Syntaxin-17 (Homo sapiens), P56962 (parent)
chain: B1 chain

Variants of: B1
Conditions: with snp23_human SNAP23, O00161

Variant	effect of a mutation on the interaction
K254C	decreasing interaction strength

Variants of: B2
Conditions: with acsl3_human ACSL3, O95573
Chain of acsl3_human ACSL3, O95573 (O95573 whole entry): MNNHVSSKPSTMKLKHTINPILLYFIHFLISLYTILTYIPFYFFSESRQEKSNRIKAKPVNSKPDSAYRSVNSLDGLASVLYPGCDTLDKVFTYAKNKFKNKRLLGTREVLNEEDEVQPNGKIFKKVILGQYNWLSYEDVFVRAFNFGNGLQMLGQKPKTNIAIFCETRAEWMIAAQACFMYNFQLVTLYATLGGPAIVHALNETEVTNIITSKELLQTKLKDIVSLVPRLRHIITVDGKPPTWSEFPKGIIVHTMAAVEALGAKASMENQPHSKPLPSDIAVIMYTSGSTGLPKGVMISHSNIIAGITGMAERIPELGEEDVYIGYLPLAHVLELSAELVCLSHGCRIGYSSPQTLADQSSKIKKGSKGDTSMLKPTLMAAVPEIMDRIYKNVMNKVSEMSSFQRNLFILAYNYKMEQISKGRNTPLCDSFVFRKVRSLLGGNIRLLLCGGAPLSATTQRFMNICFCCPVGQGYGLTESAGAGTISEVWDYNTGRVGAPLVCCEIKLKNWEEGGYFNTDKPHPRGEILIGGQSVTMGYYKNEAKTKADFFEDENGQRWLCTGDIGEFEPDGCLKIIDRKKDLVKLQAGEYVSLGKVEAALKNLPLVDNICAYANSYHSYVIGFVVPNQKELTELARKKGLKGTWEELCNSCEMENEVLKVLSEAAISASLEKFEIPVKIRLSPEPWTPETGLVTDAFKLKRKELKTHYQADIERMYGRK

Variant	effect of a mutation on the interaction
K254C	with no effect
